Patent US20260232732A1 (FUNDACI INSTITUT DE RECERCA CONTRA LA LEUC MIA JOSEP …, published 2026)
Where no end group is shown, it is not given here. The star is where a group is joined. Biotin = O=C1N[C@H]2[C@H](CS[C@H]2CCCCC(=O)*)N1

Columns and labels:
[1] = target: T1, Peptide 4, non-conjugated (SMEDYVNFNF-C) (human); assay: ELISA; Ab 0.01563 ug/mL; repI
T1 construct: With the extra C-terminal Cys
T1 peptide: SMEDYVNFNFC
Description: (§1) In brief, plates with each non-conjugated peptide (50 μg/mL) or BSA-conjugated peptide (5 μg/mL) were coated in 0.58M carbonate-bicarbonate buffer pH9.5, 100 μL/well, at 4° C. […] After washing, wells were incubated with the 3, 3′,5,5′-Tetramethylbenzidine (TMB) HRP substrate and reactions were stopped with 2M HCl and OD450 was recorded.

[2] = target: T2, Peptide 2-BSA (GSESTSSMED-C conjugated to BSA) (human); assay: ELISA; Ab 0.01563 ug/mL; repI
T2 peptide: GSESTSSMEDC(BSA)
Description: as §1

[3] = target: T3, Peptide 1, non-conjugated (MADDYGSEST-C) (human); assay: ELISA; Ab 0.01563 ug/mL; repI
T3 construct: With the extra C-terminal Cys
T3 peptide: MADDYGSESTC
Description: as §1

[4] = target: T4, Peptide 1-BSA (MADDYGSEST-C conjugated to BSA) (human); assay: ELISA; Ab 0.01563 ug/mL; repI
T4 peptide: MADDYGSESTC(BSA)
Description: as §1

[5] = target: T5, Peptide 4-BSA (SMEDYVNFNF-C conjugated to BSA) (human); assay: ELISA; Ab 0.01563 ug/mL; repI
T5 peptide: SMEDYVNFNFC(BSA)
Description: as §1

[6] = target: T6, Peptide 3-BSA (SSMEDYVNFN-C conjugated to BSA) (human); assay: ELISA; Ab 0.01563 ug/mL; repI
T6 peptide: SSMEDYVNFNC(BSA)
Description: as §1

[7] = target: T7, Peptide 2, non-conjugated (GSESTSSMED-C) (human); assay: ELISA; Ab 0.01563 ug/mL; repI
T7 construct: With the extra C-terminal Cys
T7 peptide: GSESTSSMEDC
Description: as §1

[8] = target: T8, antigen peptide-BSA (immunisation peptide #1 MADDYGSESTSSMEDYVNFNF-C conjugated to BSA) (human, extra C-terminal Cys conjugated to BSA); assay: ELISA; Ab 0.01563 ug/mL; repI
T8 construct: also called Positive control antigen peptide-BSA; MADDY peptide
T8 peptide: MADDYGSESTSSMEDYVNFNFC
Description: as §1

[9] = target: T9, BSA (negative control coating) (bovine, UniProt P02769 25-607); assay: ELISA; Ab 0.01563 ug/mL; repI
T9 construct: also called Negative control BSA
Description: as §1

[10] = target: T10, Peptide 3, non-conjugated (SSMEDYVNFN-C) (human); assay: ELISA; Ab 0.01563 ug/mL; repI
T10 construct: With the extra C-terminal Cys
T10 peptide: SSMEDYVNFNC
Description: as §1

[11] = target: T11, biotin-peptide MADDYGSEST (human); assay: ELISA, biotin-peptide
T11 peptide: Biotin-MADDYGSEST

[12] = target: T12, biotin-peptide YVNFNFTDFY (human); assay: ELISA, biotin-peptide
T12 peptide: Biotin-YVNFNFTDFY

[13] = target: T13, biotin-peptide TSPIPNMADD (human); assay: ELISA, biotin-peptide
T13 peptide: Biotin-TSPIPNMADD

[14] = target: T14, biotin-peptide IPNMADDYGS (human); assay: ELISA, biotin-peptide
T14 peptide: Biotin-IPNMADDYGS

[15] = target: T15, biotin-peptide DYGSESTSSM (human); assay: ELISA, biotin-peptide
T15 peptide: Biotin-DYGSESTSSM

[16] = target: T16, biotin-peptide TDFYCEKNNV (human); assay: ELISA, biotin-peptide
T16 peptide: Biotin-TDFYCEKNNV

[17] = target: T17, biotin-peptide SMEDYVNFNF (human); assay: ELISA, biotin-peptide
T17 peptide: Biotin-SMEDYVNFNF

[18] = target: T18, biotin-peptide SSMEDYVNFN (human); assay: ELISA, biotin-peptide
T18 peptide: Biotin-SSMEDYVNFN

[19] = target: T19, biotin-peptide TDFTSPIPNM (human); assay: ELISA, biotin-peptide
T19 peptide: Biotin-TDFTSPIPNM

[20] = target: T20, biotin-peptide SESTSSMEDY (human); assay: ELISA, biotin-peptide
T20 peptide: Biotin-SESTSSMEDY

[21] = target: T21, biotin-peptide FNFTDFYCEK (human); assay: ELISA, biotin-peptide
T21 peptide: Biotin-FNFTDFYCEK

[22] = target: T22, biotin-peptide MEDYVNFNFT (human); assay: ELISA biotin-peptide; scFv 0.3125 ug/mL; repI
T22 peptide: Biotin-MEDYVNFNFT
Description: (§2) The peptides were synthesized naked or with a N-terminal Biotin modification with a purity of >98%. All four scFvs were verified by ELISA that can be detected with anti-His antibodies. ELISA was performed for scFv-peptide binding validation. Briefly, naked peptides were coated (50 μg/mL) in 0.58M carbonate-bicarbonate buffer pH9.5, 100 μL/well, 4° C. O/N. Then after blocking (3% BSA-PBS, 300 μL/well 37° C. 1.5 h) and washing (PBS+Tween-20 0.05% v/v (0.05% PBST), wells were incubated with each purified scFv antibody at concentration of 1 μg/mL in PBS at 37° C. 1 h. After washing (0.05% PBST), wells were incubated with secondary antibodies (goat anti-His IgG-HRP) in PBS, 37° C., 30 min. After washing, and incubation with TMB substrate, reactions were stopped with 2M HCl and reading was quantified at OD450.
(§3) ELISA with biotin-conjugated peptides (5 μg/mL) was performed very similar to described above with minor modifications.
(§4) A full curve ELISA was performed for each positive scFv/biotin-peptide pair in order to confirm previous results. Tables 15-17 show ELISA results of the dose-dependent full curve for each positive peptide with scFv “CCR9_HUM”, “Comp-2” and “Comp-3”, respectively.

[23] = target: T17, biotin-peptide SMEDYVNFNF; assay: ELISA biotin-peptide; scFv 0.3125 ug/mL; repI
Description: as §2, §3, §4

[24] = target: T23, biotin-peptide TSSMEDYVNF (human); assay: ELISA biotin-peptide; scFv 0.3125 ug/mL; repI
T23 peptide: Biotin-TSSMEDYVNF
Description: as §2, §3, §4

[25] = target: T22, biotin-peptide MEDYVNFNFT; assay: ELISA biotin-peptide; scFv 10 ug/mL; repII
Description: as §2, §3, §4

[26] = target: T17, biotin-peptide SMEDYVNFNF; assay: ELISA biotin-peptide; scFv 10 ug/mL; repII
Description: as §2, §3, §4

[27] = target: T18, biotin-peptide SSMEDYVNFN; assay: ELISA biotin-peptide; scFv 10 ug/mL; repII
Description: as §2, §3, §4

[28] = target: T23, biotin-peptide TSSMEDYVNF; assay: ELISA biotin-peptide; scFv 10 ug/mL; repII
Description: as §2, §3, §4

T9 sequence (P02769 25-607 limits assumed): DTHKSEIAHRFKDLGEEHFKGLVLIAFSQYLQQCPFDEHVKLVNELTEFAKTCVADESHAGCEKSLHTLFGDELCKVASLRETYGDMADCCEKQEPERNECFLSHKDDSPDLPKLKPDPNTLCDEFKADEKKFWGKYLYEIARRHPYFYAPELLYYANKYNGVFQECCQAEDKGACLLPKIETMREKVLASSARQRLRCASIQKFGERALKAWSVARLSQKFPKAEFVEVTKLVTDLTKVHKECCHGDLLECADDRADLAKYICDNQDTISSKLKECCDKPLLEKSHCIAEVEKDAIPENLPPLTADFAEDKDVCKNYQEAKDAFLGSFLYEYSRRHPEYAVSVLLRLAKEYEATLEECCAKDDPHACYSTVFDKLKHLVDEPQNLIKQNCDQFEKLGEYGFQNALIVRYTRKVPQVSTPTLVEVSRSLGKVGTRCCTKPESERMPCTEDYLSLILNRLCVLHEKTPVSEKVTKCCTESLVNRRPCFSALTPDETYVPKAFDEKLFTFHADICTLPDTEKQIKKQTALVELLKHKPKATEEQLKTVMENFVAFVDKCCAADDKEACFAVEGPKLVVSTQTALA

B1: anti-CCR9 antibody clone 115 (murine, from hybridoma #115) (antibody, V domains shown)
VH: QVQLKQSGPELVKPGTSVRVSCTASGYSFTDYIIYWVKQSHGRSLEWIGYIDPNNYNTRYSQKFKGKATLTVDKSSTSAFMHLNSLTSDDSAVYYCARDVYWGQGTTLTVSS
VL: DVVMTQTPLSLTVSLGDQASISCRSSQSLVHSNGKTYLQWYLQKPGQSPKLLIYKVSNRFSGVPDRFSGSGSGTDFTLKISRVEAEDLGVYFCAQSTHVWTFGGGTKLEIKR
notes: Mouse IgG1
OD450 [1]: 0.38 OD
OD450 [2]: 0.01 OD
OD450 [3]: 0.01 OD
OD450 [4]: 0.01 OD
OD450 [5]: 0.91 OD
OD450 [6]: 1.33 OD
OD450 [7]: 0.01 OD
OD450 [8]: 1.1 OD
OD450 [9]: 0.01 OD
OD450 [10]: 1.47 OD

B2: Comparative antibody 1 (Comp-1) scFv, SEQ ID NO: 10 from WO2023/037125 A1, His-tagged (scFv)
scFv: QVQLKESGPGLVQPSQTLSLTCTVSGFSVASYDMHWVRLPPGKGLEWMGIIWANGNTHYNSGLKSRLSISRDTSKSQVFLKMNSLQTEDTAIYFCTRGGFAYWGQGTLVTVSSGGGGSGGGGSGGGGSGGGGSDVVMTQTPVSLSVSLGGQVSISCRSSQSLVHNNGNTYLSWYLQKPGQSPQLLIYKVSNRFSGVSDRFSGSGSGTDFTLKISRVEPDDLGVYYCGQGTQYPTFGGGTKLELKHHHHHH
binding result [11]: no binding (tested: 10 ug/mL)
binding result [12]: no binding (tested: 10 ug/mL)
binding result [13]: no binding (tested: 10 ug/mL)
binding result [14]: no binding (tested: 10 ug/mL)
binding result [15]: no binding (tested: 10 ug/mL)
binding result [16]: no binding (tested: 10 ug/mL)
binding result [17]: no binding (tested: 10 ug/mL)
binding result [18]: no binding (tested: 10 ug/mL)
binding result [19]: no binding (tested: 10 ug/mL)
binding result [20]: no binding (tested: 10 ug/mL)
binding result [21]: no binding (tested: 10 ug/mL)

B3: CCR9_HUM2 scFv (humanized anti-CCR9 scFv, SEQ ID NO: 17 with C-terminal 6xHis tag) (scFv)
scFv: QVQLVQSGAEVKKPGASVKVSCTASGYSFTDYIIYWVKQAHGQSLEWMGYIDPNNYNTRYSQKFQGKVTITVDKSSTSAYMELNSLTSDDTAVYYCARDVYWGQGTTVTVSSGGGGSGGGGSGGGGSGGGGSDVVMTQTPLSLSVTPGQPASISCRSSQSLVHSNGKTYLQWYLQKPGQSPKLLIYKVSNRFSGVPDRFSGSGSGTDFTLKISRVEAEDVGVYFCAQSTHVWTFGGGTKVEIKRAHHHHHH
OD450 [22]: 1.47 OD
OD450 [23]: 1.63 OD
OD450 [24]: 0.46 OD
OD450 [25]: 1.79 OD
OD450 [26]: 1.85 OD
OD450 [27]: 1.87 OD
OD450 [28]: 1.36 OD
